{"source": "patent US11591604B2", "about": "“Gene expression in Bacteroides” (Massachusetts Institute of Technology, priority 2015, dated 2023)", "molecules": {"B1": {"name": "PBT0268: Arabinogalactan inducible promoter + RBS, SEQ ID NO: 146 (nucleic acid)", "DNA": "TAAAATACACAAGTACGCGTCTTAATGGAAGATGCGTACTTTTCCATATATCAATGATCTATCCCATTTGAATGATTCCTGAACTTATATTGAACGATTTTTAGACCTGTTATAGTTAATAGCGATTATGGTCCAATTTTGGAAGTTTTTGAATGATTAGAGAACTTCTTTCTACTGGATAACTCGCACTTTTGTGACGCATTTGATGCACAACTAATACTTATTTGGTCTAAATAACTTTATAAATCTAATAGT"}, "B2": {"name": "Int12: Serine integrase, SEQ ID NO: 167 (protein)", "chain": "MKVAIYTRVSSAEQANEGYSIHEQKKKLISYCEIHDWNEYKVFTDAGISGGSMKRPALQKLMKHLSSFDLVLVYKLDRLTRNVRDLLDMLEEFEQYNVSFKSATEVFDTTSAIGKLFITMVGAMAEWERETIRERSLFGSRAAVREGNYIREAPFCYDNIEGKLHPNEYAKVIDLIVSMFKKGISANEIARRLNSSKVHVPNKKSWNRNSLIRLMRSPVLRGHTKYGDMLIENTHEPVLSEHDYNAINNAISSKTHKSKVKHHAIFRGALVCPQCNRRLHLYAGTVKDRKGYKYDVRRYKCETCSKNKDVKNVSFNESEVENKFVNLLKSYELNKFHIRKVEPVKKIEYDIDKINKQKINYTRSWSLGYIEDDEYFELMEEINATKKMIEEQTTENKQSVSKEQIQSINNFILKGWEELTIKDKEELILSTVDKIEFNFIPKDKKHKTNTLDINNIHFKF"}}, "key": {"Bacteroides spp": {"system": "Bacteroides spp", "test": "pNBU1 integration and gene expression across Bacteroides and Parabacteroides species", "format": "cell-based", "excerpt": "FIG. 11 is a graph showing that pNBU1 may be used to target, for example, B. thetaiotaomicron, B. fragilis, B. ovatus, B. vulgatus, B. caccae, B. eggerthii, B. vulgatus and Parabacteroides distasonis.\nAn integration vector, designated pNBU1, was created to introduce recombinant DNA into a wide range of Bacteroides species (FIG. 10). IntN1 integrase catalyzes site-specific genomic integration of the plasmid into recipient Bacteroides strains."}, "NanoLuc [1]": {"system": "NanoLuc", "test": "Response curves of inducible promoters driving NanoLuc", "format": "cell-based, B. thetaiotaomicron", "conditions": "arabinogalactan induction", "method": "FIGS. 2A-2E. Design and characterization of genetic sensors. (FIGS. 2A-2D) Response curves for NanoLuc under the regulated control of the rhamnose—(Rha) (FIG. 2A), chondroitin sulfate—(ChS) (FIG. 2B), arabinogalactan—(AG) (FIG. 2C), or IPTG—(FIG. 2D) inducible promoters. LacO1 operator sites were inserted in various regions (O1, O2, O3) of the PcfxA promoter (see also FIGS. 7A-7B). Inducer concentrations were applied as follows: three-fold serial dilutions starting at 10 mM Rha (FIG. 2A); three-fold serial dilutions starting at 0.4% for ChS (FIG. 2B) and AG (FIG. 2C); and four-fold serial dilutions starting at 500 μM for IPTG (FIG. 2D). The leftmost data point in each plot represents the background luminescence in the absence of inducer. Response curves were fit to a Hill function (solid lines). (FIG. 2E) Orthogonality matrix of sugar-inducible genetic systems incubated with 10 mM rhamnose (Rha), 0.2% chondroitin sulfate (ChS), 0.2% arabinogalactan (AG), or 100 mM IPTG compared to no inducer. Error bars represent the standard deviation of three biological replicates made on different days.\nFIGS. 7A-7B. Synthetic IPTG-inducible promoters. (FIG. 7A) Synthetic IPTG-inducible promoters were constructed by placing LacO1 operator sites (red) upstream of the −33 element (O1), between the −33 and −7 elements (O2) and/or directly downstream of the transcription start site (O3) of the strong PcfxA promoter. Predicted −33, −7 and +1 sites are shown in bold. These promoters are regulated by the E. coli LacIQ repressor expressed from PBT1311. FIG. 7A depicts SEQ ID NOs: 217 to 220 from top to bottom, respectively. (FIG. 7B) Response curves for the synthetic IPTG-inducible systems. Cells were incubated with no inducer or four-fold serial dilutions of IPTG starting at 500 μM. Data sets for PLacO13 and PLacO23 were fit to a Hill function (solid line). Error bars represent the standard deviation of three biological replicates made on three different days (n=3).\nTo create inducible systems for use in B. thetaiotaomicron, parts from a large repertoire of systems that govern carbohydrate utilization were used, which included cytoplasmic transcription factors, extracytoplasmic function sigma/anti-sigma pairs, and hybrid two-component systems (HTCS), among others (64). In B. thetaiotaomicron, rhamnose metabolism is mediated by the AraC/XylS-family transcriptional activator, RhaR, which activates transcription at the PBT3763 promoter (Patel E H, et al. Res. Microbiol. 159:678-84, 2008). To assay the functionality of PBT3763 as an inducible system, 250 bp of the promoter-RBS region was cloned upstream of the start codon of BT3763 into the pNBU2 expression vector to drive expression of NanoLuc.\nTwo-component systems are signal-transduction mechanisms widespread in bacteria for sensing external stimuli. […] Putative HTCSs, BT3334 and BT0267, were identified in transcriptomic studies to control expression of the chondroitin sulfate (ChS)-inducible PBT3324 promoter and arabinogalactan (AG)-inducible PBT0268 promoter, respectively (64, 83). The promoter regions upstream of the BT3324 and BT0268 genes were used as the basis for two polysaccharide sensors. Chondroitin sulfate induction of PBT3324 and arabinogalactan induction PBT0268 led to a 60-fold and 29-fold regulation of output gene expression, respectively (FIGS. 2B and 2C).\nNext, an IPTG-inducible system was developed. Pairs of LacO1 operator sites were inserted in the strong PcfxA promoter in three locations: upstream of the −33 element (O1), between the −33 and −7 elements (O2) or just downstream of the transcription start site (O3) (FIGS. 7A-7B). The LacI^Q repressor was expressed from the strong BT1311 promoter to achieve tight control of NanoLuc expression. Compared to the unmodified PcfxA promoter, the addition of synthetic operator sites diminished the maximum expression of NanoLuc (FIGS. 7A-7B). […]"}, "NanoLuc [2]": {"system": "NanoLuc", "test": "Luciferase activity in fecal pellets of mice colonized with arabinogalactan-inducible P0268 strain", "format": "in vivo, Swiss Webster mice", "method": "FIGS. 5A-5D. In vivo function of genetic parts within B. thetaiotaomicron colonizing the mouse gut. (FIG. 5A) Experimental timeline. Specific pathogen free (SPF) Swiss Webster mice were treated for 10 days with ciprofloxacin and metronidazole and gavaged with B. thetaiotaomicron 2 days after cessation of treatment. […] Mice were provided drinking water supplemented with 5% arabinogalactan (FIG. 5B: solid line), or 25 mM IPTG (FIG. 5C: solid line) after stool collection on Day 2 (grey box), or were maintained on normal drinking water throughout the entire experiment (dashed lines). Inducer water was removed on Day 4 after stool collection. Grey boxes indicate the period of time that mice were exposed to inducer-supplemented drinking water. Luminescence values were normalized to cell density as determined by qPCR using NanoLuc-specific primers. (FIG. 5D) SPF mice were colonized with B. thetaiotaomicron containing the rhamnose-inducible integrase construct P3763-rpiL*C51-Int12. […] Absolute quantities of flipped and unflipped memory array in fecal DNA were determined by qPCR using standard curves (Experimental Procedures). Recombination frequency is expressed as the ratio of cells containing a flipped memory array (Flipped) divided by the sum total of cells containing a flipped or unflipped array (Total). […]"}, "[3]": {"system": "integrase recognition sequences in the memory array", "test": "Integrase-mediated DNA inversion in chromosomal memory array detected by PCR", "format": "cell-based, B. thetaiotaomicron", "conditions": "integrase expressed from PAM4-rpiL*, PCR detection", "source_text": "(FIG. 3C) Integrase-mediated DNA inversion at each integrase target sequence in the memory array cassette was detected by polymerase chain reaction (PCR). Primer pairs (arrows) anneals to the interface of the integrase recognition sites and to the spacer region between recognition sites. PCR amplification occurs only after an inversion event (solid lines below the primer arrows indicate expected amplicons). (FIG. 3D) Representative PCR products are shown after recombination. − indicates no integrase, + indicates the integrase is present. PAM4-rpiL* was used to control expression of each integrase."}, "B. thetaiotaomicron": {"system": "B. thetaiotaomicron", "test": "Cell growth (OD600) of P3763-rpiL*C51-Int12 strain versus rhamnose concentration", "format": "cell-based", "conditions": "even when maximally expressed", "excerpt": "FIGS. 8A-8B. Integrase characterization. (FIG. 8A) Representative PCR products are shown for wild-type (unflipped) memory array at each integrase recognition sequence. “−” indicates no integrase, “+” indicates the integrase is present. PAM4-rpiL* was used to control expression of each integrase. (FIG. 8B) Cell growth of the P3763-rpiL*C51-Int12 strain is shown as optical density (OD) at 600 nm as a function of rhamnose concentration. Inducer concentrations were three-fold serial dilutions starting at 10 mM rhamnose. The leftmost data point represents the […] in the absence of inducer. Cells were grown 8 hours at 37° C. before measuring the OD600 value for each culture. Error bars represent the standard deviation of three biological replicates made on three different days (n=3).\nTo create an inducible memory switch, Int12 was cloned under the control of the rhamnose-inducible promoter with the rpiL*RBS variant C51 (FIG. 3E) (see also FIG. 1C, Table 1)."}}}
{"molecule": "pNBU1: integration vector with IntN1 integrase, SEQ ID NO: 209", "values": [{"measurement": "host range and efficiency relative to the pNBU2 plasmid", "setting": "Bacteroides spp", "result": "greater host range and efficiency"}]}
{"molecule": "B1", "values": [{"measurement": "regulation of output gene expression", "setting": "NanoLuc [1]", "result": 29, "unit": "fold"}, {"measurement": "luciferase activity after removal of inducer from drinking water", "setting": "NanoLuc [2]; fecal pellets", "result": "rapidly returned to baseline"}, {"measurement": "increase of luciferase activity in fecal pellets", "setting": "NanoLuc [2]; within a day of arabinogalactan in drinking water", "result": "approximately 75 fold"}]}
{"molecule": "B2", "values": [{"measurement": "recombination at the respective recognition sequence in the memory array", "setting": "[3]", "result": "catalyzed recombination"}, {"measurement": "impact on growth of B. thetaiotaomicron", "setting": "B. thetaiotaomicron", "result": "did not impact growth"}]}
